# Read-outs that look alike come from different tables or passages of the source.
# T1: Human IL-17A (human) (UniProt Q16552)
# T1 sequence: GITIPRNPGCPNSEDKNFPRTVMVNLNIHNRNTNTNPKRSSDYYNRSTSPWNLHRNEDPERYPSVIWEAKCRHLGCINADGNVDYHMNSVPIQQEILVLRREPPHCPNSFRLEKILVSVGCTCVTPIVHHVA
# B1: <IL17> 9C6-2B6 (mouse clone) (antibody, V domains shown)
# VH: QVQLKESGPGLVAPSQSLSITCTVSGFSLDSYGVHWVRQPPGKGLEWLVVIWSDGTTTYNSALKSRLSITKDNSKSQVFLKMNSLQTDDTAIYYCARDTHYRLYYYAMDYWGQGTSVTVSS
# VL: DVVMTQTPLSLPVSLGDQASISCRSSQSLVHSNGDTYFHWYLQKPGQSPKLLIYKVSNRFSGVPDRFSGSGSGTDFTLKINRVEAEDLGVYFCSQTTHAPFTFGSGTKLEIK
# Legend:
# Test in all cases: ELISA, IL-17A coated on plate, relative binding (Table 6a)
# Human IL-17A (human) [1] = target: T1, Human IL-17A (human)
# [2] = target: Cynomolgous IL-17A (cynomolgous)
# Human IL-17A (human) [3] = target: T1, Human IL-17A (human); remark: listed apart in the source
Relative binding to human IL-17A in % (Human IL-17A (human) [1]) [%],Relative binding to cynomolgous IL-17A in % [2] [%],Relative binding to human IL-17A in % (Human IL-17A (human) [3]) [%],Molecule
122,124,,eBio64CAP17 (antibody)
,,127,B1

# Source: patent WO2014161570A1
